Reference: PMC4191419, “SSX2 is a novel DNA-binding protein that antagonizes polycomb group body formation and gene repression”

Biological target: SSX2 (rSSX2) (UniProt Q16385 1-188)
Assay: MST; Hill coefficient 3.0; 50 nM DNA; EMSA: 20 mM Tris-HCl pH 7.4, 50 mM NaCl, 1 mM DTT (complexes stable at 75 mM, dissolved at 250 mM NaCl; fragment used not stated); MST: 20 mM Tris-HCl pH 7.4, NaCl printed as 50 nM (probably 50 mM), 0.05% NP40, ambient temperature, 2 h
Conditions: protein: recombinant

SSX2 (rSSX2), sequence (Q16385 whole entry, the tested form may be a part): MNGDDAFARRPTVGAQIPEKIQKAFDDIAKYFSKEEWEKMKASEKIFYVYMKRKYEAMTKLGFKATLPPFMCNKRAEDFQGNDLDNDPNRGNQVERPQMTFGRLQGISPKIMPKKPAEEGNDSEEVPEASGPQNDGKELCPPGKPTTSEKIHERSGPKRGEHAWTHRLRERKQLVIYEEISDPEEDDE

B1: Cy5 random 30-nt dsDNA (dsDNA)
DNA 1: CGTCTATACTTTCACAATGTTGACCTGCAC
DNA 2: GTGCAGGTCAACATTGTGAAAGTATAGACG
Kd: 1800 ± 200 nM
